Data on two substances can be found in publication PMC12099300.

For one assay, the target named is onvatilimab. As to the kind of experiment: ELISA; antibodies coated on MaxiSorp plates (5 µg/mL, 50 µL, overnight 4°C), blocked with 1% BSA; PD-L1 or VISTA 50-0.0003 µg/mL in PBS, 1 h RT; detected by anti-His-tag antibody and Strep-HRP; EC50 by nonlinear regression.
A further assay has as its target atezolizumab. The description is as above.

onvatilimab, sequence (heavy, as listed by the source, chain 1 of 2): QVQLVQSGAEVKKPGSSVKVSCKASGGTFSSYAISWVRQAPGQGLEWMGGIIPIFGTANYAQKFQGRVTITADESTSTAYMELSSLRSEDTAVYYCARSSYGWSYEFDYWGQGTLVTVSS
onvatilimab, sequence (light, as listed by the source, chain 2 of 2): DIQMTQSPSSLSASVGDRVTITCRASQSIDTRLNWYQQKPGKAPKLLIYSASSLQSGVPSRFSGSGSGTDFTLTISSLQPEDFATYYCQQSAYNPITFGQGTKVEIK

“VISTA (V-type immunoglobulin suppressor of T-cell activation) (from UniProt Q9H7M9 33-311) (natural protein)” gave an EC50 in the assay with onvatilimab of 0.0001 nM.

“PD-L1 (programmed cell death ligand 1) (from UniProt Q9NZQ7 19-290) (natural protein)” yielded an EC50 with atezolizumab of 0.07 nM.
